Results reported in the supplement of paper PMC10567573.
± gives the standard deviation.

Experiment: protein stability index of a GFP-peptide fusion (GPS, HEK-293T) (PSI 1-6); higher = more stable
[1] = treatment: DMSO, c terminus: a fixed tail appended
[2] = treatment: MLN4924 1 uM, 8 h, c terminus: a fixed tail appended
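Note: 24-mer peptide tiles fused after GFP, lentivirally expressed, FACS-sorted into six equal bins by GFP/DsRed ratio, decoded by Illumina sequencing, PSI is the read-weighted mean bin number.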

Row | Sequence | protein stability index [1] | protein stability index [2] | protein stability index (treatment: DMSO, c terminus: native) | protein stability index (treatment: MLN4924 1 uM, 8 h, c terminus: native)
1 | YSYVVSRPQPRGLLGWGYYLIMLP [FAF2] | 2.89 ± 0.57 | 2.16 ± 0.37 | – | –
2 | FTCDEENVFAAVGRGLYVYSLQMK [WDR41] | 2.57 ± 0.56 | 2.38 ± 0.093 | – | –
3 | HSKLTDREKTNICYLSFPDSNSGC [DENND6A] | 3.32 ± 0.26 | 3.39 ± 0.3 | – | –
4 | VSIMYLVLVLAVQVHAWQLYYSKK [JAGN1] | 2.98 ± 0.67 | 3.27 ± 0.16 | – | –
5 | TCGEGYQFRVVRCWKMLSPGFDSS [ADAMTSL2] | 2.77 ± 0.43 | 2.28 ± 0.38 | – | –
6 | MTQQGAALQNYNNELVKCIEELCQ [SSNA1] | 3.33 ± 0.4 | 3.4 ± 0.31 | – | –
7 | KVNQNQAKRCTVIGGSGFLGQHMV [NSDHL] | 2.22 ± 0.21 | 2.07 ± 0.2 | – | –
8 | APADPTAREGLAAPPRRLRSRKVS [FCHO1] | 5.12 ± 0.16 | 5.304 ± 0.013 | – | –
9 | WRITNAKGDVEEVQGPGVVGEFPI [FBXO3] | 3.75 ± 0.34 | 3.84 ± 0.48 | – | –
10 | MGGIMAPKDIMTNTHAKSILNSMN [KLHL12] | 2.83 ± 0.092 | 3.27 ± 0.47 | – | –
11 | MWRDLTDEEKQEYLNEYEAEKIEY [SMARCE1] | 4.26 ± 0.4 | 4.35 ± 0.21 | – | –
12 | RYNDFVVFQEMLLHKFPYRMVPAL [SNX8] | 2.51 ± 0.41 | 2.22 ± 0.27 | – | –
13 | SIEVGGSVNFDGETIEGAPPLWAA [FEM1C] | 3.92 ± 0.28 | 4.12 ± 0.34 | – | –
14 | SENARLVLQIDNAKLAADDFRTKY [KRT36] | 4.03 ± 0.2 | 4 ± 0.24 | – | –
15 | NDRMSTRHDGYATNDGNHPSCQET [RBMY1A1] | 5.17 ± 0.19 | 5.22 ± 0.1 | – | –
16 | SPVSRNRLAQVKRKILVLDLDETL [CTDNEP1] | 2.6 ± 0.35 | 2.77 ± 0.36 | – | –
17 | TAIRPLKILPWSPEKIGTRFLLYT [PNLIPRP1] | 2.23 ± 0.21 | 2.37 ± 0.24 | – | –
18 | VSHVFMLLFNVKSPTDIQDSSIIR [RHOBTB3] | 2.81 ± 0.56 | 2.64 ± 0.48 | – | –
19 | MRPPMPPHGQYGGHHQGMPGYLPG [ZNF207] | 3.23 ± 0.3 | 3.29 ± 0.18 | – | –
20 | GRGAVVPGAGLRRPTYTPPSIMPQ [ZBTB22] | 3.51 ± 0.3 | 3.74 ± 0.063 | – | –
21 | LFSDDYGGKNCKKPAEYGYVSLGR [CEBPB] | 3.02 ± 0.31 | 3.2 ± 0.33 | – | –
22 | KNTFEFLKENNFQPYPLPHVRHMA [CLK3] | 2.54 ± 0.26 | 2.51 ± 0.12 | – | –

Row | Sequence | protein stability index [1] | protein stability index [2] | protein stability index (treatment: DMSO, c terminus: native) | protein stability index (treatment: MLN4924 1 uM, 8 h, c terminus: native)
23 | VQRHLYLQDVIMQVADVPEKPRVP [ZNF511] | 2.8 ± 0.2 | 2.9 ± 0.29 | – | –
24 | TPVSNSLLPEKAFSDIPSPYLRGT [GFOD1] | 4.03 ± 0.28 | 3.98 ± 0.1 | – | –
25 | PRLQELLGPSPQRDPQAVKERALS [ZNF263] | 4.6 ± 0.27 | 4.65 ± 0.3 | – | –
26 | MFGLVIPLGVLQAIAMYFLPPSPR [SLC2A12] | 2.46 ± 0.64 | 2.53 ± 0.64 | – | –
27 | YTRLGEMNNAVRNLQELLELDSSS [CEP70] | 3.77 ± 0.22 | 4.06 ± 0.17 | – | –
28 | LPRRRGLRKKKTTKLRLERVKFRR [NEUROD6] | 3.85 ± 0.27 | 3.97 ± 0.29 | – | –
29 | PPARPRPRSPECRMIPGQPPASAR [IRX6] | 4.95 ± 0.21 | 4.9 ± 0.12 | – | –
30 | FGLSILWVLLFTPCSFVCWYRPMY [SCAMP3] | 2.97 ± 0.37 | 3.48 ± 0.32 | – | –
31 | NHEEEVNTLRSQLGDRLNVEVDTA [KRT34] | 5.4 ± 0.33 | 5.441 ± 0.028 | – | –
32 | TSDAAFLTQWKDSLVSLVLYNMDL [ZER1] | 2.71 ± 0.52 | 2.56 ± 0.44 | – | –
33 | YLPPERIREKSRLFDTKHDVYSFA [RIPK4] | 2.62 ± 0.24 | 2.72 ± 0.25 | – | –
34 | RTHSVIKEETNHSEMAEDLCKIGS [IKZF1] | 4.9 ± 0.25 | 4.85 ± 0.46 | – | –
35 | KSTWPRYSKPGLSMRLLESKKGLS [TCF25] | 2.92 ± 0.34 | 3.12 ± 0.17 | – | –
36 | MSWEKEEGKSRHVDFQCVKSKSIT [BTBD10] | 4.48 ± 0.085 | 4.42 ± 0.2 | – | –
37 | VFCDMETDGGGWLVFQRRMDGQTD [TNXB] | 2.9 ± 0.27 | 2.98 ± 0.096 | – | –
38 | SDEYKIRRERNNIAVRKSRDKAKM [CEBPB] | 4.75 ± 0.27 | 5 ± 0.17 | – | –
39 | AEWLLAVRSIQPEEKERIGQFVFA [AASDHPPT] | 2.29 ± 0.15 | 2.13 ± 0.18 | – | –
40 | KLNCDPSRIYKPQTRLKRKQPVRK [DFFB] | 3.36 ± 0.56 | 3.71 ± 0.63 | – | –
41 | HKSAFNDWFSGHLNFQIEHHLFPT [FADS1] | 2.11 ± 0.18 | 2.07 ± 0.41 | – | –
42 | RALEEVEMKLQKNFLTQRENTIAG [C10orf62] | 3.48 ± 0.081 | 3.73 ± 0.33 | – | –
43 | AFADTHSCRELLRIADKFTQHNFQ [KLHL20] | 2.09 ± 0.21 | 2.02 ± 0.28 | – | –
44 | KAGSSEWLAVDGLVSPSNNSKEDA [ATF4] | 5.13 ± 0.19 | 5.14 ± 0.25 | – | –

Row | Sequence | protein stability index [1] | protein stability index [2] | protein stability index (treatment: DMSO, c terminus: native) | protein stability index (treatment: MLN4924 1 uM, 8 h, c terminus: native)
45 | GGLNRETNEKMLKAVFGKHGPISE [RBMY1A1] | 3.69 ± 0.28 | 3.81 ± 0.19 | – | –
46 | KSAAMLAVFAVSAVVHEYALAVCL [SOAT1] | 3.22 ± 0.64 | 3.32 ± 0.54 | – | –
47 | GLHRRPGAGHCSASPGPAAPTARM | 3.76 ± 0.31 | 3.64 ± 0.31 | – | –
48 | QTHSNTIVVSLQSKLASMSNDFKS [STX5] | 2.8 ± 0.11 | 2.92 ± 0.24 | – | –
49 | LEAPEDIGSTSESKDWEEVVVESM [MIA2] | 5.4 ± 0.23 | 5.58 ± 0.013 | – | –
50 | ALSGASQPGPSGAPAQRATRGFLR [RETREG3] | 4.59 ± 0.16 | 4.78 ± 0.073 | – | –
51 | TGYPYRYPALREKSKKYSDVEVPA [ADD1] | 3.67 ± 0.081 | 3.66 ± 0.044 | – | –
52 | APELVERVQSVDFMRTDPVCQKLL [KLHL14] | 3.85 ± 0.36 | 4.12 ± 0.2 | – | –
53 | GSLRTLELGSESQGASESQAPGEE [HDAC6] | 5.52 ± 0.29 | 5.58 ± 0.22 | – | –
54 | EAEALAGTGLVLDEQLNEFHCLWD [HDAC6] | 4.29 ± 0.061 | 4.15 ± 0.45 | – | –
55 | QEVPHEGPMCDLLWSDPDDRGGWG [PPP2CA] | 4.39 ± 0.32 | 4.61 ± 0.2 | – | –
56 | HYDLLNLNGTKVAEGHKASFCLED [LOXL2] | 4.12 ± 0.5 | 4.26 ± 0.34 | – | –
57 | PVRKLYDDCSSTIVEDPQTKCEYM [ESRRG] | 4.47 ± 0.21 | 4.64 ± 0.19 | – | –
58 | ILKRTGQRYEHGRTLKSYLGLTNQ [ZNF649] | 2.44 ± 0.24 | 2.63 ± 0.099 | – | –
59 | DESGYVSGYKHAGTYDQKVQGGK [TPPP] | – | – | 5.24 ± 0.15 | 5.4 ± 0.24
60 | KVIYDFIEKTGGVEAVKNELRRQA [WASL] | 2.13 ± 0.41 | 2.28 ± 0.23 | – | –
61 | TDLEMQIEGLKEELAYLRKNHEEE [KRT16] | 5.24 ± 0.098 | 5.45 ± 0.23 | – | –
62 | SYLHAKKYLKPSGNMFPTIGDVHL [CARM1] | 2.35 ± 0.39 | 2.64 ± 0.52 | – | –
63 | LQKDLETRPTQHELRLYKQQVKKL [CEP70] | 4.19 ± 0.2 | 4.42 ± 0.37 | – | –
64 | ILAFLVLEAVAGALVVALWGPLQD [TSPAN10] | 2.85 ± 0.24 | 3.03 ± 0.27 | – | –
65 | GFQPPSPSLRPRPASSISLPIGHL [DMRTC1] | 3.43 ± 0.21 | 3.44 ± 0.19 | – | –
